Laboratory results reported in US20190016828A1 (Hoffmann-La Roche, published 2019).

Assays:
[1] = target: T1, human neonatal Fc-receptor (FcRn) (human, UniProt P55899 24-297; P61769 21-119); assay: FcRn affinity chromatography, anti-IGF-1R KiH antibody
T1 construct: also called human FcRn; huFcRn

[2] = target: T1, human neonatal Fc-receptor (FcRn); assay: SPR (BIAcore), FcRn immobilized on a CM5 chip, pH 6.0, 200 nM sample
Procedure: The binding properties of wild-type antibody and the mutants to FcRn were analyzed by surface plasmon resonance (SPR) technology using a BIAcore T100 instrument (BIAcore AB, Uppsala, Sweden). […] In the current assay, the FcRn receptor was immobilized onto a BIAcore CM5-biosensor chip (GE Healthcare Bioscience, Uppsala, Sweden) via amine coupling to a level of 400 Response units (RU). The assay was carried out at room temperature with PBS, 0.05% Tween20 pH 6.0 (GE Healthcare Bioscience) as running and dilution buffer. 200 nM of samples were injected at a flow rate of 50 μL/min at room temperature. Association time was 180 sec., dissociation phase took 360 sec. Regeneration of the chip surface was reached by a short injection of HBS-P, pH 8.0. Evaluation of SPR-data was performed by comparison of the biological response signal height at 180 sec. after injection and at 300 sec. after injection. The corresponding parameters are the RU max level (180 sec. after injection) and late stability (300 sec. after end of injection).

T1 sequence (P55899 24-297 limits assumed, chain 1 of 2): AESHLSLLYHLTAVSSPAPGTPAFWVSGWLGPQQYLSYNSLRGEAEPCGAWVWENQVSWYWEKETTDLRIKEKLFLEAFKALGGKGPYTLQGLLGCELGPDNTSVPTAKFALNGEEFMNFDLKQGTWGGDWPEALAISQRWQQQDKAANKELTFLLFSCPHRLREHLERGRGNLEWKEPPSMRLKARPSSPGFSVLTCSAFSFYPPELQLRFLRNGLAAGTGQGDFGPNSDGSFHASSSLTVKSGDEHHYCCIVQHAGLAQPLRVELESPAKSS
T1 sequence (P61769 21-119 limits assumed, chain 2 of 2): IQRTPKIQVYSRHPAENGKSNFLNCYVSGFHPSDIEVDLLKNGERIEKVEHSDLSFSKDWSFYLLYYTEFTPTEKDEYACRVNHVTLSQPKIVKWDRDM

Row | Binder | retention time on FcRn affinity column [1] [min] | binding result [2]
1 | IGF-1R 0034 (antibody, human IgG1, kappa, tied by description; also called <IgF-1R> IgG1 knob wt, hole I253A, H310A, H435A; anti-IGF-1R antibody, one chain with I253A/H310A/H435A) light: not shown heavy 1: not shown heavy 2: QVELVESGGGVVQPGRSQRLSCAASGFTFSSYGMHWVRQAPGKGLEWVAIIWFDGSSTYYADSVRGRFTISRDNSKNTLYLQMNSLRAEDTAVYFCARELGRRYFDLWGRGTLVSVSSASTKGPSVFPLAPSSKSTSGGTAALGCLVKDYFPEPVTVSWNSGALTSGVHTFPAVLQSSGLYSLSSVVTVPSSSLGTQTYICNVNHKPSNTKVDKKVEPKSCDKTHTCPPCPAPELLGGPSVFLFPPKPKDTLMASRTPEVTCVVVDVSHEDPEVKFNWYVDGVEVHNAKTKPREEQYNSTYRVVSVLTVLAQDWLNGKEYKCKVSNKALPAPIEKTISKAKGQPREPQVCTLPPSRDELTKNQVSLSCAVKGFYPSDIAVEWESNGQPENNYKTTPPVLDSDGSFFLVSKLTVDKSRWQQGNVFSCSVMHEALHNAYTQKSLSLSPGK | 42 | –
2 | IGF-1R 0036 (antibody, human IgG1, kappa, tied by description; also called <IGF-1R> IgG1 knob wt, hole M252Y, S254T, T256E; anti-IGF-1R antibody, one chain with M252Y/S254T/T256E) light: not shown heavy 1: not shown heavy 2: QVELVESGGGVVQPGRSQRLSCAASGFTFSSYGMHWVRQAPGKGLEWVAIIWFDGSSTYYADSVRGRFTISRDNSKNTLYLQMNSLRAEDTAVYFCARELGRRYFDLWGRGTLVSVSSASTKGPSVFPLAPSSKSTSGGTAALGCLVKDYFPEPVTVSWNSGALTSGVHTFPAVLQSSGLYSLSSVVTVPSSSLGTQTYICNVNHKPSNTKVDKKVEPKSCDKTHTCPPCPAPELLGGPSVFLFPPKPKDTLYITREPEVTCVVVDVSHEDPEVKFNWYVDGVEVHNAKTKPREEQYNSTYRVVSVLTVLHQDWLNGKEYKCKVSNKALPAPIEKTISKAKGQPREPQVCTLPPSRDELTKNQVSLSCAVKGFYPSDIAVEWESNGQPENNYKTTPPVLDSDGSFFLVSKLTVDKSRWQQGNVFSCSVMHEALHNHYTQKSLSLSPGK | 57.6 | –
3 | IGF-1R 0035 (antibody, human IgG1, kappa, also called <IGF-1R> IgG1 knob wt, hole H310A, H433A, Y436A; IGF-1R 0035 (with HHY-AAA mutation in one Fc-region polypeptide)) light: not shown heavy 1: not shown heavy 2: QVELVESGGGVVQPGRSQRLSCAASGFTFSSYGMHWVRQAPGKGLEWVAIIWFDGSSTYYADSVRGRFTISRDNSKNTLYLQMNSLRAEDTAVYFCARELGRRYFDLWGRGTLVSVSSASTKGPSVFPLAPSSKSTSGGTAALGCLVKDYFPEPVTVSWNSGALTSGVHTFPAVLQSSGLYSLSSVVTVPSSSLGTQTYICNVNHKPSNTKVDKKVEPKSCDKTHTCPPCPAPELLGGPSVFLFPPKPKDTLMISRTPEVTCVVVDVSHEDPEVKFNWYVDGVEVHNAKTKPREEQYNSTYRVVSVLTVLAQDWLNGKEYKCKVSNKALPAPIEKTISKAKGQPREPQVCTLPPSRDELTKNQVSLSCAVKGFYPSDIAVEWESNGQPENNYKTTPPVLDSDGSFFLVSKLTVDKSRWQQGNVFSCSVMHEALANHATQKSLSLSPGK | 42.4 | –
4 | IGF-1R 0037 (antibody, human IgG1, kappa, tied by description; also called <IGF-1R> IgG1 knob wt, hole L251D, L314D, L432D; anti-IGF-1R antibody, one chain with L251D/L314D/L432D) light: not shown heavy 1: not shown heavy 2: QVELVESGGGVVQPGRSQRLSCAASGFTFSSYGMHWVRQAPGKGLEWVAIIWFDGSSTYYADSVRGRFTISRDNSKNTLYLQMNSLRAEDTAVYFCARELGRRYFDLWGRGTLVSVSSASTKGPSVFPLAPSSKSTSGGTAALGCLVKDYFPEPVTVSWNSGALTSGVHTFPAVLQSSGLYSLSSVVTVPSSSLGTQTYICNVNHKPSNTKVDKKVEPKSCDKTHTCPPCPAPELLGGPSVFLFPPKPKDTDMISRTPEVTCVVVDVSHEDPEVKFNWYVDGVEVHNAKTKPREEQYNSTYRVVSVLTVLHQDWDNGKEYKCKVSNKALPAPIEKTISKAKGQPREPQVCTLPPSRDELTKNQVSLSCAVKGFYPSDIAVEWESNGQPENNYKTTPPVLDSDGSFFLVSKLTVDKSRWQQGNVFSCSVMHEADHNHYTQKSLSLSPGK | 40.9 | –
5 | YTE-mutant of anti-IGF-1R antibody (antibody, human IgG1, kappa, IgG1; also called <IGF-1R> IgG1 with M252Y, S254T, T256E; anti-IGF-1R IgG1 with YTE mutation) light: not shown heavy: QVELVESGGGVVQPGRSQRLSCAASGFTFSSYGMHWVRQAPGKGLEWVAIIWFDGSSTYYADSVRGRFTISRDNSKNTLYLQMNSLRAEDTAVYFCARELGRRYFDLWGRGTLVSVSSASTKGPSVFPLAPSSKSTSGGTAALGCLVKDYFPEPVTVSWNSGALTSGVHTFPAVLQSSGLYSLSSVVTVPSSSLGTQTYICNVNHKPSNTKVDKKVEPKSCDKTHTCPPCPAPELLGGPSVFLFPPKPKDTLYITREPEVTCVVVDVSHEDPEVKFNWYVDGVEVHNAKTKPREEQYNSTYRVVSVLTVLHQDWLNGKEYKCKVSNKALPAPIEKTISKAKGQPREPQVYTLPPSRDELTKNQVSLTCLVKGFYPSDIAVEWESNGQPENNYKTTPPVLDSDGSFFLYSKLTVDKSRWQQGNVFSCSVMHEALHNHYTQKSLSLSPG | – | binds
